These results are taken from the Immune Epitope Database (IEDB).

In assay [1] the target is HLA-A*01:01. Kind of assay: IEDB peptide-MHC binding, purified MHC/direct/fluorescence; filed as Kd, often an IC50 or EC50 that approximates it; ≥ and ≤ were set here for values at or beyond the usual limits of such assays. To be noted: source organism: Mammarenavirus lassaense.
In a further assay the target is HLA-A*80:01. The description is as above.
The target of a further assay is HLA-B*27:05. The experiment in a line: IEDB peptide-MHC binding, cellular MHC/competitive/radioactivity; ≥ and ≤ were set here for values at or beyond the usual limits of such assays. The following applies: source organism: Hepacivirus hominis.
In another assay the target is HLA-B*73:01. Kind of assay: IEDB peptide-MHC binding, purified MHC/competitive/fluorescence; filed as Kd, often an IC50 or EC50 that approximates it; ≥ and ≤ were set here for values at or beyond the usual limits of such assays. The following applies: source organism: Salmonella enterica subsp. enterica serovar Typhimurium str. LT2.
In a further assay the target is HLA-A*02:01. Kind of assay: IEDB peptide-MHC binding, purified MHC/competitive/radioactivity; ≥ and ≤ were set here for values at or beyond the usual limits of such assays. The following applies: source organism: Trypanosoma cruzi.
A further assay concerns the target HLA-A*02:02. Kind of assay: IEDB peptide-MHC binding, purified MHC/competitive/radioactivity; filed as Kd, often an IC50 or EC50 that approximates it; ≥ and ≤ were set here for values at or beyond the usual limits of such assays. To be noted: source organism: Trypanosoma cruzi.
The target of the next assay is HLA-A*68:02. Described as above. To be noted: source organism: Trypanosoma cruzi.
A further assay concerns the target HLA-A*02:06. The description is as above. To be noted: source organism: Trypanosoma cruzi.
Another assay addresses HLA-A*02:03. The assay is described as above. To be noted: source organism: Trypanosoma cruzi.
The target of another assay is HLA-B*83:01. Kind of assay: IEDB peptide-MHC binding, purified MHC/competitive/fluorescence; filed as Kd, often an IC50 or EC50 that approximates it; ≥ and ≤ were set here for values at or beyond the usual limits of such assays.
The next assay concerns the target HLA-B*15:42. The description is as above.
Another assay has as its target HLA-B*27:20. The description is as above.
A further assay addresses HLA-B*45:06. Described as above.
Another assay deals with HLA-C*07:02. The experiment in a line: IEDB peptide-MHC binding, purified MHC/direct/fluorescence; filed as Kd, often an IC50 or EC50 that approximates it; ≥ and ≤ were set here for values at or beyond the usual limits of such assays.
The next assay deals with HLA-B*46:01. Kind of assay: IEDB peptide-MHC binding, purified MHC/competitive/fluorescence; filed as Kd, often an IC50 or EC50 that approximates it; ≥ and ≤ were set here for values at or beyond the usual limits of such assays. The following applies: source organism: Yersinia pestis Nepal516.
The target of another assay is HLA-B*35:01. The assay is described as above. To be noted: source organism: Yersinia pestis Nepal516.
A further assay concerns the target HLA-B*15:01. The assay is described as above. The following applies: source organism: Yersinia pestis Nepal516.
The next assay deals with HLA-B*07:02. The assay is described as above. To be noted: source organism: Yersinia pestis Nepal516.
The next assay addresses HLA-B*15:02. The description is as above. To be noted: source organism: Yersinia pestis Nepal516.
The target in the next assay is HLA-B*48:01. Described as above. The following applies: source organism: Escherichia coli B171.
For another assay, the target named is HLA-B*51:01. The assay is described as above. The following applies: source organism: Yersinia pestis Nepal516.
The target of another assay is HLA-B*08:01. The description is as above. To be noted: source organism: Yersinia pestis Nepal516.
For a further assay, the target named is HLA-C*15:02. The experiment in a line: IEDB peptide-MHC binding, purified MHC/direct/fluorescence; filed as Kd, often an IC50 or EC50 that approximates it; ≥ and ≤ were set here for values at or beyond the usual limits of such assays. The following applies: source organism: Yersinia pestis Nepal516.
For a further assay, the target named is HLA-C*06:02. The experiment in a line: IEDB peptide-MHC binding, purified MHC/competitive/fluorescence; filed as Kd, often an IC50 or EC50 that approximates it; ≥ and ≤ were set here for values at or beyond the usual limits of such assays. To be noted: source organism: Yersinia pestis Nepal516.
In assay [2] the target is HLA-C*04:01. The assay is described as above. The following applies: source organism: Yersinia pestis Nepal516.
The target in the next assay is HLA-C*14:02. The assay is described as above. To be noted: source organism: Yersinia pestis Nepal516.
A further assay deals with HLA-A*32:07. The assay is described as above. To be noted: source organism: Yersinia pestis Nepal516.
Another assay concerns the target HLA-A*03:19. Described as above. To be noted: source organism: Yersinia pestis Nepal516.
Another assay concerns the target HLA-A*68:23. The assay is described as above. To be noted: source organism: Yersinia pestis Nepal516.
A further assay concerns the target HLA-A*32:15. The assay is described as above. The following applies: source organism: Yersinia pestis Nepal516.
Another assay addresses HLA-A*24:02. The description is as above.
In assay [3] the target is HLA-C*04:01. The experiment in a line: IEDB peptide-MHC binding, purified MHC/direct/fluorescence; filed as Kd, often an IC50 or EC50 that approximates it; ≥ and ≤ were set here for values at or beyond the usual limits of such assays. The following applies: source organism: Entamoeba dispar SAW760.
The next assay deals with HLA-C*12:03. The description is as above. The following applies: source organism: Yersinia pestis Nepal516.
In a further assay the target is HLA-C*03:03. The assay is described as above. The following applies: source organism: Yersinia pestis Nepal516.
A further assay addresses HLA-B*39:01. The experiment in a line: IEDB peptide-MHC binding, purified MHC/competitive/fluorescence; filed as Kd, often an IC50 or EC50 that approximates it; ≥ and ≤ were set here for values at or beyond the usual limits of such assays. To be noted: source organism: Yersinia pestis Nepal516.
Assay [4] concerns the target HLA-A*01:01. The assay is described as above. To be noted: source organism: Rattus norvegicus.
Another assay concerns the target HLA-A*29:02. Described as above. To be noted: source organism: Rattus norvegicus.
The mark [5] stands for this setting: source organism: Human herpesvirus 4 strain B95-8.
The mark [6] stands for this setting: source organism: Yersinia pestis Nepal516.
Setting [7] is: source organism: Entamoeba dispar SAW760.

Take YENAVWDQY: the Kd with HLA-A*01:01 [1] came out at 537 nM; in the assay with HLA-A*80:01 (source organism: Mammarenavirus lassaense), 463 nM.
Regarding ARMILMTHF, the IC50 with HLA-B*27:05 turned out to be 1.1 nM.
In the case of WRLYSPPPV, the Kd with HLA-B*73:01 was determined as 118 nM.
As to FLSHNFTLV, the IC50 in the assay with HLA-A*02:01 was found to be 0.61 nM. In addition, the Kd in the assay with HLA-A*02:02 was determined as 0.047 nM; with HLA-A*68:02, 27.1 nM; with HLA-A*02:06 it was 0.445 nM; with HLA-A*02:03, 0.0232 nM.
RRAALSGHL: the Kd is at least 5 µM in the assay with HLA-B*83:01 (setting [5]), at least 5 µM with HLA-B*15:42 (setting [5]), 0.2 nM in the assay with HLA-B*27:20 (setting [5]) and at least 5 µM with HLA-B*45:06 (setting [5]).
Take HLIQNPNPF: the Kd in the assay with HLA-C*07:02 (setting [6]) came out at 626 nM; in the assay with HLA-B*46:01, 8.05 µM; with HLA-B*35:01 it was 27.3 nM; with HLA-B*15:01, 30.8 nM; with HLA-B*07:02 it was 6.5 µM; with HLA-B*15:02, 17.3 nM.
The sequence RQNLSSSEL returned a Kd with HLA-B*48:01 of 192 nM.
Regarding LPFLKSLAI, the Kd is 841 nM in the assay with HLA-B*51:01; 46.1 nM with HLA-B*35:01; at least 20000 nM in the assay with HLA-B*15:01; 105 nM in the assay with HLA-B*08:01; 0.0126 µM in the assay with HLA-B*07:02.
As to FYFNWNTPI, the Kd in the assay with HLA-C*15:02 is 1060 nM; with HLA-C*06:02, 33.9 nM; in the assay with HLA-C*04:01 [2] it was 300 nM; with HLA-C*14:02 it was at most 0.1 nM; with HLA-A*32:07 it was 0.2 nM; with HLA-A*03:19 it was 1420 nM. Moreover, the Kd is at least 5 µM with HLA-B*15:42 (setting [6]); 23.5 nM in the assay with HLA-A*68:23; 7.2 nM in the assay with HLA-A*32:15; at least 5 µM with HLA-B*45:06 (setting [6]); at most 0.1 nM with HLA-A*24:02 (setting [6]).
As for YYSNKVFPI, the Kd with HLA-C*07:02 (setting [7]) was 245 nM; in the assay with HLA-C*04:01 [3], at least 20 µM; with HLA-A*24:02 (setting [7]), at most 0.1 nM.
On to YRYCHQLAL, for which the Kd is 39 nM with HLA-C*07:02 (setting [6]); 206 nM with HLA-C*12:03; at least 20000 nM in the assay with HLA-C*15:02; 164 nM with HLA-C*03:03; 1.2 nM with HLA-B*39:01; 1.8 nM with HLA-C*06:02. For the same sequence, the Kd with HLA-B*83:01 (setting [6]) was at least 5 µM; with HLA-B*15:42 (setting [6]), at least 5 µM; with HLA-B*27:20 (setting [6]), 0.2 nM; with HLA-B*45:06 (setting [6]), at least 5 µM.
On to FFGETSHNY, for which the values for the Kd in the assay with HLA-A*80:01 (source organism: Mus musculus), with HLA-A*01:01 [4] and with HLA-A*29:02 were at least 20000 nM, at least 20 µM and at most 0.1 nM, respectively.
